Results reported in publication PMC2794250, “An MDM2 antagonist (MI-319) restores p53 functions and increases the life span of orally treated follicular lymphoma bearing animals” (2009).

Molecular target: recombinant His-tagged MDM2 (amino acids 1-118) (human) (UniProt Q00987)
Test: FP; competition with PMDM6-F

Ki: 6.7 µM
Substance: natural p53 peptide (from UniProt P04637)
